According to article PMC13254535, “The RecBCD complex interacts directly with the DNA sliding clamp in Escherichia coli” (Nucleic Acids Research, 2026):

Legend:
β-clamp [1] = target: T1, β-clamp (Escherichia coli, UniProt P0A988); conditions: N-terminally his-tagged RecB as bait, pBAD30, E. coli MG1655; anti-β-clamp western blot
Procedure: His-tagged recB was cloned into the pBAD30 plasmid (kind gift from Prof. Michael T. Laub, MIT and Howard Hughes Medical Institute, USA) by Dongxuan Gene Technology Co. and transformed into E. coli MG1655. An overnight culture was diluted 1:100 into 1 l of LB broth supplemented with ampicillin (100 µg/ml). When the culture reached an OD600 of 0.5, expression was induced with 0.4% (w/v) L-arabinose. After 2 h of induction at 37°C, cells were harvested by centrifugation (4000 x g, 10 min), washed with Phosphate buffered saline (PBS), and crosslinked with 1% formaldehyde for 20 min at room temperature. Crosslinking was quenched by the addition of glycine to a final concentration of 2.5 M. The cell pellets were washed three times with PBS, flash-frozen in liquid nitrogen, and stored at −80°C.
For lysis, cell pellets were resuspended in 10 ml of lysis buffer (50 mM Tris–HCl, pH 8.0; 500 mM NaCl; 10 mM β-mercaptoethanol; 1 mg/ml lysozyme) and subjected to sonication in 3 × 15-s pulses (Vibra cell, Sonics & Materials, Inc., Newtown, CT, USA). […]
After incubation for 30 min at 4°C with gentle rotation, beads were washed four times with wash buffer (50 mM sodium phosphate, pH 8.0; 300 mM NaCl; 0.01% (v/w) Tween-20). […] Beads were removed magnetically, and eluates were analyzed by SDS–polyacrylamide gel electrophoresis (PAGE). […]

[2] = tested on: E. coli BTH101 ∆recB strain (IMR04); test: Ciprofloxacin survival assay (complementation of BTH101 ΔrecB); assay type: cell-based, Escherichia coli; conditions: expressed from pUT18C in BTH101 ΔrecB; ciprofloxacin 2–16 ng/ml, 2 h, 37°C; CFU; 2 to 3 biological replicates
Procedure: (§1) Non-transformed BTH101 and BTH101 ∆recB served as positive and negative controls, respectively. All strains were cultured at 30°C to early exponential phase (OD600 around 0.2, measured by Nanodrop One) before treatment.
. Cultures were incubated at 37°C with shaking for 2 h. Following treatment, cells were pelleted by centrifugation and resuspended in fresh LB medium to remove residual antibiotic and halt exposure. Cultures were then serially diluted 10-fold, and 5 µl of each dilution was spotted onto LB agar plates. After overnight incubation at 30°C, CFUs were counted. […]

BTH101 ΔrecB cells = test: Western blot of RecB expression level; set-up: species or system Escherichia coli; conditions: pUT18C constructs in BTH101 ΔrecB; Ponceau S normalized; relative to BTH101 wild type
Procedure: Samples, including purified RecB, β-clamp (purified as previously explained for co-immunoprecipitation), input (10 µg; 0.5%), and pull-down eluates, and samples from BTH101 cultures used in survival assays, were mixed with 1 mM dithiothreitol (DTT) and 1× NuPAGE LDS sample buffer, then heated to 75°C for 10 min. […] SeeBlue Plus2 Pre-stained Protein Standard (Invitrogen) was used as a molecular weight marker.
Proteins were transferred onto 0.2-µm nitrocellulose membranes using the Trans-Blot Turbo Transfer System (Bio-Rad), and membranes were blocked in 5% (w/v) skim milk (Merck) in PBS-T (PBS with 0.1% Tween-20) for 45–60 min at room temperature. […] Following protein transfer, these membranes were also incubated in 0.1% (w/v) Ponceau S solution for 5 min to verify transfer efficiency and account for total protein loading. The stain was visualized, imaged for densitometric normalization, and subsequently removed by washing with deionized water prior to blocking. […]
Relative RecB levels were quantified from the western blot images using Fiji (ImageJ) [58]. […] The lane profiles were plotted, and the measured signal from each lane was first normalized to the relevant Ponceau stain signal from the same lane and then to the wild-type strain.

[3] = tested on: EH219 cells (GFP-β-clamp, RecB-HaloTag); conditions: unchallenged; foci within 1 pixel (0.108 µm); three biological replicates
Procedure: Fixed cells with endogenously tagged recB and dnaN (strain EH219) were imaged. β-clamp was N-terminally tagged with green fluorescence protein (GFP) [48]
Strains were first grown overnight on LB-agar plates with kanamycin for selection. Then, 2 ml LB with kanamycin was inoculated with five plate colonies to create overnight cultures. The next day, overnight cultures were diluted 1:200 in fresh LB medium with kanamycin and cultured at 37°C until exponential growth (OD600 of 0.10). JF549-HTL (5 µM final concentration) was then added to the culture, and incubation continued for another 60 min for staining the RecB HaloTag, before washing five times with LB. […] Samples were fixed by resuspending and incubating them in PBS with 4% (v/w) formaldehyde for 60 min, followed by washing twice with PBS and resuspension in PBS for imaging.
Briefly, we used a Nikon Eclipse Ti2-E inverted microscope equipped with a 60× oil objective, a CrestOptics X-Light V3 spinning disk confocal module (50:400 µm spinning disk), a Lumencor Celeste multi-line laser and two Teledyne Photometrics Kinetix sCMOS cameras. […] Three channels were used for fluorescence imaging: a transmitted light channel for cell outlines (1 ms exposure), in addition to GFP and JF549 fluorescence channels imaged with a 50:400 µm spinning disk. […] The foci numbers per cell were quantified along with their colocalization. […]

[4] = tested on: E. coli BTH101 ∆recB strain (IMR04); test: UV survival assay (complementation of BTH101 ΔrecB); assay type: cell-based, Escherichia coli; conditions: expressed from pUT18C in BTH101 ΔrecB; UV 5, 15 or 30 J/m^2; CFU; 2 to 3 biological replicates
Procedure: as §1
For UV exposure, bacterial cultures were serially diluted 10-fold in LB. From each dilution, 5 µl was spotted onto four separate LB agar plates supplemented with IPTG (0.5 mM) and the appropriate antibiotics. Once droplets had dried, one plate was kept unexposed as a control, while the remaining three plates were subjected to UV irradiation at doses of 5, 15, or 30 J/m^2 using an CL-1000 ultraviolet crosslinker (UVP). Plates were incubated overnight at 30°C, after which colony-forming units (CFUs) were counted. Survival at each UV dose was calculated as the ratio of CFUs on the UV-exposed plates to CFUs on the unexposed control plate.

β-clamp [5] = target: T1, β-clamp; conditions: 3-AT 0.5 mM; ~29 million interaction tests
Excerpt: Yeast-two hybrid screening was outsourced to Hybrigenics (Paris, France). This service employs a high-complexity E. coli prey library (∼3 × 10^7 clones) and follows a robust mating-based screening protocol to identify binary protein interactions. Full-length E. coli dnaN (encoding β-clamp) was cloned into the Gal4 DNA-binding domain expression vector pGBKT7, which carries LEU2 and TRP1 selection markers (bait plasmid). The dnaN bait was screened against an E. coli complementary DNA/genomic prey library provided by Hybrigenics, totaling ~29 million interaction tests. Transformants were selected on medium lacking leucine, tryptophan, and histidine, supplemented with 0.5 mM of 3-amino-1,2,4-triazole (3-AT) to suppress background growth. Positive interactions were confirmed and sequenced by Hybrigenics.

T1 sequence (P0A988 whole entry): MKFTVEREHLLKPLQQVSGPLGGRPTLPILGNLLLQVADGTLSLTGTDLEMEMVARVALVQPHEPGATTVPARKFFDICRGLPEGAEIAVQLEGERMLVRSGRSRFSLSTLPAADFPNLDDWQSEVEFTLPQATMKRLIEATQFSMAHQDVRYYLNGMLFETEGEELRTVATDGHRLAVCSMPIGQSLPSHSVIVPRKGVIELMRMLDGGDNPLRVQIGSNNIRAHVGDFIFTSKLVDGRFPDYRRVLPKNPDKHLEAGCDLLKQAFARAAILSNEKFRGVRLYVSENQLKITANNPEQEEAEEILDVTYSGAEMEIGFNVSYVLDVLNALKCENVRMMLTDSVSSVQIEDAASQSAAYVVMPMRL

B1: RecB: wild type RecB subunit of the E. coli RecBCD complex (T18 fusion, his-tagged or HaloTag according to test) (protein)
chain: MSDVAETLDPLRLPLQGERLIEASAGTGKTFTIAALYLRLLLGLGGSAAFPRPLTVEELLVVTFTEAATAELRGRIRSNIHELRIACLRETTDNPLYERLLEEIDDKAQAAQWLLLAERQMDEAAVFTIHGFCQRMLNLNAFESGMLFEQQLIEDESLLRYQACADFWRRHCYPLPREIAQVVFETWKGPQALLRDINRYLQGEAPVIKAPPPDDETLASRHAQIVARIDTVKQQWRDAVGELDALIESSGIDRRKFNRSNQAKWIDKISAWAEEETNSYQLPESLEKFSQRFLEDRTKAGGETPRHPLFEAIDQLLAEPLSIRDLVITRALAEIRETVAREKRRRGELGFDDMLSRLDSALRSESGEVLAAAIRTRFPVAMIDEFQDTDPQQYRIFRRIWHHQPETALLLIGDPKQAIYAFRGADIFTYMKARSEVHAHYTLDTNWRSAPGMVNSVNKLFSQTDDAFMFREIPFIPVKSAGKNQALRFVFKGETQPAMKMWLMEGESCGVGDYQSTMAQVCAAQIRDWLQAGQRGEALLMNGDDARPVRASDISVLVRSRQEAAQVRDALTLLEIPSVYLSNRDSVFETLEAQEMLWLLQAVMTPERENTLRSALATSMMGLNALDIETLNNDEHAWDVVVEEFDGYRQIWRKRGVMPMLRALMSARNIAENLLATAGGERRLTDILHISELLQEAGTQLESEHALVRWLSQHILEPDSNASSQQMRLESDKHLVQIVTIHKSKGLEYPLVWLPFITNFRVQEQAFYHDRHSFEAVLDLNAAPESVDLAEAERLAEDLRLLYVALTRSVWHCSLGVAPLVRRRGDKKGDTDVHQSALGRLLQKGEPQDAAGLRTCIEALCDDDIAWQTAQTGDNQPWQVNDVSTAELNAKTLQRLPGDNWRVTSYSGLQQRGHGIAQDLMPRLDVDAAGVASVVEEPTLTPHQFPRGASPGTFLHSLFEDLDFTQPVDPNWVREKLELGGFESQWEPVLTEWITAVLQAPLNETGVSLSQLSARNKQVEMEFYLPISEPLIASQLDTLIRQFDPLSAGCPPLEFMQVRGMLKGFIDLVFRHEGRYYLLDYKSNWLGEDSSAYTQQAMAAAMQAHRYDLQYQLYTLALHRYLRHRIADYDYEHHFGGVIYLFLRGVDKEHPQQGIYTTRPNAGLIALMDEMFAGMTLEEA
modifications: left off: T18 (Bordetella pertussis CyaA fragment), N-terminal, kept
B1 was tested, and the “pull-down of β-clamp” value (β-clamp [1]) was “β-clamp was pulled down and exhibited a strong band on the membrane”, the “survival after ciprofloxacin” value [2] was “fully restores ΔrecB strain survival to the wild-type strain (BTH101) level” and the “RecB expression level relative to endogenous RecB” value (BTH101 ΔrecB cells) was “more than eight times higher”. For the same molecule, the “cells showing RecB–β-clamp colocalization” value [3] was “around 32%”, the “survival after UV” value [4] was “fully restores ΔrecB strain survival to the wild-type strain (BTH101) level” and the “yeast two-hybrid interaction with β-clamp” value (β-clamp [5]) was “possible interaction”.
